Test results from patent US20060281899A1, “Mutants of biotin binding protein” (priority 2002, published 2006).

Experiments:
[1] = Differential scanning calorimetry of the avidin mutants; format: physicochemical; settings: DSC, 100 mM Na-phosphate buffer pH 7.4
Description: In order to study the thermal stability of the purified avidin mutants, they were subjected to analysis by differential scanning calorimetry. A Nano II differential scanning calorimeter (Calorimetric Science Corporation, Provo, Utah) was used. […] The reference cell was filled with the same buffer that the sample proteins were dissolved in (100 mM Na-phosphate buffer pH 7.4). The thermograms were recorded as a function of temperature, between 25 and 130° C. at a temperature scan rate of 55.6° C./h. The baselines were subtracted and the transition midpoints (Tm) of the samples were calculated using proprietary software provided by the instrument manufacturer.

[2] = Non-reducing SDS-PAGE thermostability, oligomeric forms after boiling; format: physicochemical; settings: boiled 20 minutes
Description: The heat stability of the AVRs was studied by using an SDS-PAGE-based method (Bayer, E. A., Ehrlich-Rogozinski, S. and Wilchek, M. (1996) Electrophoresis 17, 1319-1324). In this method, each protein sample was divided into two fractions one of which was kept biotin-free and the other was supplemented with an excess of biotin. The samples were then mixed with denaturing SDS-PAGE sample buffer (containing β-mercaptoethanol) and incubated at a given temperature for 20 minutes. After heat treatment, the samples were subjected to SDS-PAGE and visualised by staining with Coomassie brilliant blue. The relative proportions of tetrameric and monomeric forms of the AVR proteins (with avidin as the control) were detected. A similar assay, with β-mercaptoethanol omitted from the sample buffer, was performed to examine the presence of intersubunit disulfide-bridges. Sensitivity to proteinase K was studied both in the absence and in the presence of biotin as described (Laitinen, O. H., Airenne, K. J., Marttila, A. T., Kulik, T., Porkka, E., Bayer, E. A., Wilchek, M. and Kulomaa, M. S. (1999) FEBS Lett. 461, 52-8). The isoelectric point of each AVR was determined by isoelectric focusing as previously reported (Marttila, A. T., Airenne, K. J., Laitinen, O. H., Kulik, T., Bayer, E. A., Wilchek, M. and Kulomaa, M. S. (1998) FEBS Lett. 441, 313-317). […]

[3] = Differential scanning calorimetry of avidin and AVR4/5 forms; format: physicochemical
Description: The thermodynamics of the heat-induced unfolding of the proteins were studied using DSC. The transition midpoint of heat-induced denaturation (Tm) of the avidin and different AVR4/5 forms was studied using a Nano II differential scanning calorimeter (Calorimetric Sciences Corporation, Provo, Utah, USA). The reference cell was filled with buffer whereas the sample cell was filled with proteins dissolved in 50 mM sodium phosphate buffer, pH 7.0 containing 100 mM NaCl. Avidin and AVR4/5(C124S) were also analyzed in 50 mM Na-acetate pH 4.0 containing 100 mM NaCl. Furthermore, AVR4/5 was analyzed in the presence of 2-mercaptoethanol (0.4% v/v). The samples (1.6-9.6 μM) were analyzed both in the absence and presence of a three fold molar excess of biotin/subunit. All samples were degassed before being loaded into the DSC. The thermograms were recorded as a function of temperature; between 25 and 130° C. at a rate of 55.6° C./h (Gonzalez, M., Argarana, C. E. & Fidelio, G. D. (1999) Biomol. Eng. 16, 67-72; Nordlund, H. R., Laitinen, O. H., Uotila, S. T., Nyholm, T., Hytönen, V. P., Slotte, J. P. & Kulomaa, M. S. (2003) J. Biol. Chem. 278, 2479-2483). Data was analyzed using Microcal Origin 6.0 and Cpcalc 2.1 (Applied Thermodynamics, Hunt Valley, Md.). The change in heat capacity upon unfolding (ΔCp) was measured for avidin and AVR4/5(C124S) using DSC data from measurements in pH 4.0 and 7.0. ΔCp was then obtained from the slope of ΔH vs. Tm (Liu, Y. & Sturtevant, J. M. (1996) Biochemistry 35, 3059-3062).

[4] = biotin cuvette; avidin values from literature; cited from earlier work

wt Avidin: Wild-type chicken avidin (SEQ ID NO 1), purified from chicken egg-white [reference compound]
Tm ([1]; + biotin (biotin:avidin molar ratio 3:1)): 118.2 ± 0.1 °C | Tm ([1]; without biotin): 85.5 ± 0.1 °C | Monomeric form, relative proportion [2]: 100 percentage | Tm at pH 4 ([3]; 50 mM Na-acetate pH 4.0, 100 mM NaCl): 76.6±0.2 °C | DSC Tm(−biotin) ([3]; 50 mM sodium phosphate pH 7.0, 100 mM NaCl): 83.5 ± 0.1 °C | ΔTm ([3]; change in Tm upon addition of a three-fold molar excess of biotin): 33.5 °C | ΔH of unfolding ([3]; sample without biotin): 78.6 ± 1.2 kcal/mol | ΔCp (change in heat capacity upon unfolding) ([3]; slope of ΔH vs. Tm, DSC at pH 4.0 and 7.0): 0.00366 kcal/mol | DSC Tm (+biotin) ([3]; three-fold molar excess of biotin, pH 7.0): 117.0 ± 0.7 °C | Reversibility of biotin binding [4]: 1 ± 1%
